Laboratory results reported in patent US20140140998.

Experiments:
[1] = system: TM-V129A/I130A TβRI mutant (HA-tagged, in HA-caTβRI)
[2] = system: TβRI intracellular domain fragment (TβRI ICD), about 34 kDa
Sequence of TβRI intracellular domain fragment (TβRI ICD), about 34 kDa (chain, as listed by the source): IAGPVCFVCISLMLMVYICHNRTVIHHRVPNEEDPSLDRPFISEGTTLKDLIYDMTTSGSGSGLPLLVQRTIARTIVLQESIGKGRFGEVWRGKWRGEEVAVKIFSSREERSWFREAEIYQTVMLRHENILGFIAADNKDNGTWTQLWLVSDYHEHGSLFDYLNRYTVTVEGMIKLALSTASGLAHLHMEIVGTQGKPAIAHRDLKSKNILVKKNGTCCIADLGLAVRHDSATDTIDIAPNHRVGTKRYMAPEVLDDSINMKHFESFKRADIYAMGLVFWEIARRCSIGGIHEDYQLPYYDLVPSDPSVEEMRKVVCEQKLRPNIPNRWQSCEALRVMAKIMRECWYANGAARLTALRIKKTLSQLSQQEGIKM

Row | Substance | production of TβRI ICD (immunoblot) [1] | acetylation of the TβRI ICD (immunoblot with anti-acetyl-lysine) [2]
1 | Presenilin 1 (PS1), endogenous | Production of TβRI ICD was observed only in the TGF-treated cells transfected with caTβRI construct | –
2 | p300, endogenous | – | acetylation of the TβRI ICD was verified using an antibody specific for acetyl-lysine
